Test results published in patent publication US20230322958A1 (Genentech, published 2023).
Positions count from the first letter of the chain named. Read-outs that look alike come from different tables or passages of the source. Each block holds one binder with its values, some of them ahead of it.

Experiments:
[1] = target: T1, human Notch2 on U-87 MG cells (human, UniProt Q04721 26-2471); test: cell-based or functional assay
[2] = target: T1, human Notch2 on U-87 MG cells; test: cell-based or functional assay; remark: listed apart in the source
huNotch2-EGF4-7 = target: T2, huNotch2-EGF4-7 (human); test: SPR BIAcore, antibody captured on protein A, 37 C
T2 chain: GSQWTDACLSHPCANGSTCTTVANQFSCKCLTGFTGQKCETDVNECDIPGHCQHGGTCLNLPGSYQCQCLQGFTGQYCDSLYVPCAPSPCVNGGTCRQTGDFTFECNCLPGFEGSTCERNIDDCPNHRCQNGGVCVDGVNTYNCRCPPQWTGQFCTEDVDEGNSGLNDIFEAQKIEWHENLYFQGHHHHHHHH
Description: (§1) Binding of the anti-Notch2 antibodies to Notch2 from additional species and to constructs comprising different EGF repeat regions was evaluated by BIAcore™. For this experiment, the antibodies with human constant regions were captured on a protein A chip to achieve approximately 200 RU. Ten-fold serial dilutions of various antigens were injected in HIBS-P buffer with additional 3 mM CaCl₂ at 37° C. with a flow rate of 100 μL/min.

muNotch2-EGF6-12.K268R = target: T3, muNotch2-EGF6-12.K268R (mouse); test: SPR BIAcore, antibody captured on protein A, 37 C
T3 chain: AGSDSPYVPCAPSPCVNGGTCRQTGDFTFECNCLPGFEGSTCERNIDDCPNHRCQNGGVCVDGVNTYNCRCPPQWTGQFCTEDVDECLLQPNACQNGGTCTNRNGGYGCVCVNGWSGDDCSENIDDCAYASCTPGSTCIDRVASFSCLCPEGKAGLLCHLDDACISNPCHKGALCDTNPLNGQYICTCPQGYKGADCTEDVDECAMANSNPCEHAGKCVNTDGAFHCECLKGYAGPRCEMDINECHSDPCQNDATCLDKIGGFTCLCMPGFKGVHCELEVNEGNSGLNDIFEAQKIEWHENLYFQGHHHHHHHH
Description: as §1

huNotch2-EGF5-8 = target: T4, huNotch2-EGF5-8 (human); test: SPR BIAcore, antibody captured on protein A, 37 C
T4 chain: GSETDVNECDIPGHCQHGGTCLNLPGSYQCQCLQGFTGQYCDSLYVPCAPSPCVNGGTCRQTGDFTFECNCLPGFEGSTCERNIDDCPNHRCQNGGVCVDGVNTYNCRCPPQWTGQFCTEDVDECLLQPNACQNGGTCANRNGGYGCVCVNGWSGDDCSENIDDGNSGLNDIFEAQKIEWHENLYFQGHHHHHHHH
Description: as §1

huNotch2-EGF7-9 = target: T5, huNotch2-EGF7-9 (human); test: SPR BIAcore, antibody captured on protein A, 37 C
T5 chain: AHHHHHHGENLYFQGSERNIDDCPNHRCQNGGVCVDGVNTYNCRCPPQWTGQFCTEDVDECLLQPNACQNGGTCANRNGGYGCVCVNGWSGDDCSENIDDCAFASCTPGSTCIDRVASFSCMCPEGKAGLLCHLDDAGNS
Description: as §1

gpNotch2-EGF6-12 = target: T6, gpNotch2-EGF6-12 (guinea pig); test: SPR BIAcore, antibody captured on protein A, 37 C
T6 construct: also called guinea pig Notch2 EGF6-12
T6 chain: T3 chain with S5N, N32S, Y129F, L148M, Q183H, A207T, L278I, V280I
Description: as §1

huNotch2-EGF6-10 [3] = target: T7, huNotch2-EGF6-10 (human, UniProt Q04721 219-418); test: SPR BIAcore, separate experiment, substantially as for Table 4
T7 construct: also called human Notch2 EGF6-10
T7 sequence: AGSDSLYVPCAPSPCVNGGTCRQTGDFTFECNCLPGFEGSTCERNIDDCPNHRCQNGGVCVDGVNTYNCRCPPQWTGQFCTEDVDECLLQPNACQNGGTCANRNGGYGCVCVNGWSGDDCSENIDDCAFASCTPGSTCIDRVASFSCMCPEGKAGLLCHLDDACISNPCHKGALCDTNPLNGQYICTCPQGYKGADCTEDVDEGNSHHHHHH
Description: (§2) The binding affinities of the antibodies was determined by BIAcore™ T200 machine. Rabbit antibodies were expressed as chimeric antibodies with rabbit variable domains and human constant domains. Rat antibodies were expressed as chimeric antibodies with rat variable domains and human constant regions. Humanized antibodies were expressed in the human IgG1 backbone. For kinetics measurements, antibodies were captured on research grade protein A chip (GE Healthcare) to achieve approximately 300 RU. Ten-fold serial dilutions of huNotch2-EGF6-10 were injected in HBS-P buffer with additional 3 mM CaCl₂ at 37° C. with a flow rate of 100 μL/min. Association rates (ka) and dissociation rates (kd) were calculated using a 1:1 Langmuir binding model (BIAcore™ T200 Evaluation Software version 2.0). The equilibrium dissociation constant (KD) was calculated as the ratio kd/ka.
In a separate experiment, the binding affinities of the humanized versions of the rat 3107 antibody were determined, substantially as described above.

huNotch2-EGF6-10 [4] = target: T7, huNotch2-EGF6-10; test: SPR BIAcore T200, antibody captured on protein A, 37 C
Description: as §2

huNotch3 = target: T8, huNotch3 (human); test: SPR
T8 construct: The entry named huNotch3 is a tagged EGF-repeat fragment; also called human Notch3
T8 chain: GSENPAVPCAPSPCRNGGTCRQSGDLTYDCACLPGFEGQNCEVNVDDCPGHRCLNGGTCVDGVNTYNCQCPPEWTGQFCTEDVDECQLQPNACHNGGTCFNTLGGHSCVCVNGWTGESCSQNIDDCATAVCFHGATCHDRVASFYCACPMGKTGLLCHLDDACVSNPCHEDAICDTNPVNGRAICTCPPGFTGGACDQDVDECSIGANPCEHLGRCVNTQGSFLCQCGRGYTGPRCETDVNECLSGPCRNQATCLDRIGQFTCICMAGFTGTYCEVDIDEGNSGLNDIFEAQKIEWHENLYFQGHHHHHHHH

huNotch1 = target: T9, huNotch1 (human); test: SPR
T9 construct: The entry named huNotch1 is a tagged EGF-repeat fragment; also called human Notch1
T9 chain: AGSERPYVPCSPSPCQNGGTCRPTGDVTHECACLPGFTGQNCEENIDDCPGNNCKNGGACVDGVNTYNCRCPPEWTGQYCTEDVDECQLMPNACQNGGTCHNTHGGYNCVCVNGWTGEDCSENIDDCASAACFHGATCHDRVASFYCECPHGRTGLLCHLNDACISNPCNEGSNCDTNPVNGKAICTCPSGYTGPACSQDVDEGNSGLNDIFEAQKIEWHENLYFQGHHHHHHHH

T1 sequence (Q04721 26-2471): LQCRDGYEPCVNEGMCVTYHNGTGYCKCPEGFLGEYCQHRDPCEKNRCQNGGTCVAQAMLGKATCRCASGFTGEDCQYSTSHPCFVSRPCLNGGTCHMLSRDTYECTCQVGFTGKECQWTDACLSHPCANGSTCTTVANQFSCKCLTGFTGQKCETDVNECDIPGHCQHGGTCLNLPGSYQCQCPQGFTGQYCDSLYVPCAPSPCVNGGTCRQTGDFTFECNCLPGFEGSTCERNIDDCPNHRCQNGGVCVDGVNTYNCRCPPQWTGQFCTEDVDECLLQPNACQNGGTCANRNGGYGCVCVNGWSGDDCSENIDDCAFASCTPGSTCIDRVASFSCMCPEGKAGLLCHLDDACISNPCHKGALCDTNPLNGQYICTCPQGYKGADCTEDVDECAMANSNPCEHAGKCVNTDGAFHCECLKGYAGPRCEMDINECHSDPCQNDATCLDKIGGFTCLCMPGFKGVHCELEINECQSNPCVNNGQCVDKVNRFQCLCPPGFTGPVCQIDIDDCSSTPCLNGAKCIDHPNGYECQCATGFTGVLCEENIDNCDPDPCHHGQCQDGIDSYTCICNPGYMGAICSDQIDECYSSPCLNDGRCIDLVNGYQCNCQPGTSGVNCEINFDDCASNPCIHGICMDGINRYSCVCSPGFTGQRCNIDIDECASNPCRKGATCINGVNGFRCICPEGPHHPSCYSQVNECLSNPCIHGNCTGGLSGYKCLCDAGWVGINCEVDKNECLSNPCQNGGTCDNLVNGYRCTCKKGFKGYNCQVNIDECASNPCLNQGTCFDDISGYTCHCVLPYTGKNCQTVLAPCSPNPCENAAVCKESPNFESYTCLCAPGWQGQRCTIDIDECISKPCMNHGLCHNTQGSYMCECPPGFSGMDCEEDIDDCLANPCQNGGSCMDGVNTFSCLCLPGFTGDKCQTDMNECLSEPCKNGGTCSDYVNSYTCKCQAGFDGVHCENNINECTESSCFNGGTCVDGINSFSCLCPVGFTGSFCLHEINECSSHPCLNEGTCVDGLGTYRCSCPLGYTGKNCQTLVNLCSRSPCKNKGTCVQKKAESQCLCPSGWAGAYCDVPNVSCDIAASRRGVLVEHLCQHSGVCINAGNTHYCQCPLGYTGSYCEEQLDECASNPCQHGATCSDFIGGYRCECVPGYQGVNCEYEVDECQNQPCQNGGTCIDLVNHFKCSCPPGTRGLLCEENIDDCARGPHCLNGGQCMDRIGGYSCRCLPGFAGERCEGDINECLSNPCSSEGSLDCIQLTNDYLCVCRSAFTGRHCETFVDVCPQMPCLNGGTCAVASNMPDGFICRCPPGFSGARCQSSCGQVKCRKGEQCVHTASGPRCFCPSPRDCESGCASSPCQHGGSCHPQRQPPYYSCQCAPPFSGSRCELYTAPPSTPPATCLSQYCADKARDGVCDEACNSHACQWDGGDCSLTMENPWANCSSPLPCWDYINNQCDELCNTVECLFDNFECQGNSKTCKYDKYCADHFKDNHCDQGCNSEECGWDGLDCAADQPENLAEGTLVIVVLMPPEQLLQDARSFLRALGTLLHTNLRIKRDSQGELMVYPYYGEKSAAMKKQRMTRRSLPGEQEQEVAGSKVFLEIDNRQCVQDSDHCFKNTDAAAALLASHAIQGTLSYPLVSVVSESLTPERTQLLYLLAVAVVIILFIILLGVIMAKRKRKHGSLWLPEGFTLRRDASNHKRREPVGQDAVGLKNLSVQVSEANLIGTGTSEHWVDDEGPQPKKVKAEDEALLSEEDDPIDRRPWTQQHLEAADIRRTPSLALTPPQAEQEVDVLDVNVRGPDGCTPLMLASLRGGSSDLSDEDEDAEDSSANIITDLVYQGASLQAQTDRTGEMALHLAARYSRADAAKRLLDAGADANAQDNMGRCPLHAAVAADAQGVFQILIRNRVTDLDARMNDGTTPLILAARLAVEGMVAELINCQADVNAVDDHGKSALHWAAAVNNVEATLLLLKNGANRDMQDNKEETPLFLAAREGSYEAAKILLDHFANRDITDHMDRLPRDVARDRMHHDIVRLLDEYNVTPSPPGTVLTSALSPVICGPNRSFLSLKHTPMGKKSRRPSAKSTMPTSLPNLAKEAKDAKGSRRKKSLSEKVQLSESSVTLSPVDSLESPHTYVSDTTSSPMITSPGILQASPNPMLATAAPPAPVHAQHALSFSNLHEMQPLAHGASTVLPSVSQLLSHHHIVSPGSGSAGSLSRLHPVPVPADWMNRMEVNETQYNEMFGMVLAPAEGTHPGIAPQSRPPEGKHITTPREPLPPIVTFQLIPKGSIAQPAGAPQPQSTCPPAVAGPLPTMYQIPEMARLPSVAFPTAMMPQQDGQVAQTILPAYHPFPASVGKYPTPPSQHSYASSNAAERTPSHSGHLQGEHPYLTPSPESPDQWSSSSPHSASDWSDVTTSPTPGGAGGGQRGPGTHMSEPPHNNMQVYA

Jagged1 IC50 [1]: 2.1 nM | Jagged1 IC50 [2]: 4.88 nM | binding result (huNotch2-EGF4-7): binds | binding result (muNotch2-EGF6-12.K268R): binds | binding result (huNotch2-EGF5-8): binds | binding result (huNotch2-EGF7-9): binds | binding result (gpNotch2-EGF6-12): binds | Kd (huNotch2-EGF6-10 [3]): 9.12 nM | koff (huNotch2-EGF6-10 [3]): 0.00312 s⁻¹ | kon (huNotch2-EGF6-10 [3]): 342000 M⁻¹ s⁻¹ | Kd (huNotch2-EGF6-10 [4]): 5 nM | koff (huNotch2-EGF6-10 [4]): 0.00182 s⁻¹ | kon (huNotch2-EGF6-10 [4]): 363000 M⁻¹ s⁻¹
B1: rat.3107 (rat/human chimeric anti-Notch2 antibody 3107) (antibody, V domains shown)
VH: QVQLQQSGAELAKSGSSVKISCKASGYTFSNYVIHWIKQTTGQAPEWTGYIIPGSGGTKFNEKFKGKATLTVDKSSTTAYMQLSSLTPVDTAVYYCARDGAGSFTYWGQGTLVTVSS
VL: DVLMTQTPVSLPVSLGGQVSISCRSSQSLVHSDGNTYLHWFLQKPGQSPQLLIYRISNRFSGVPDRFSGSGSGTDFTLKISRVEPEDLGVYYCLQSTHFPDTFGGGTKVEIK

Jagged1 IC50 [1]: 3.02 nM | binding result (huNotch3): no binding | binding result (huNotch1): no binding | Kd (huNotch2-EGF6-10 [4]): 2.84 nM | koff (huNotch2-EGF6-10 [4]): 0.000813 s⁻¹ | kon (huNotch2-EGF6-10 [4]): 286000 M⁻¹ s⁻¹
B2: hu1B2.v101 (antibody, V domains shown)
VH: EVQLVESGGGLVQPGGSLKLSCAVSGFTFSDFYMEWVRQASGKGLEWVAAQRNKANDFSIVYSASVKDRFTISRDDSKSTLYLQMNSLKTEDTAVYYCSRDGGRWGLDAWGQGTLVTVSS
VL: DIQMTQSPSSVSASVGDRVTITCQTSEDIYSGLAWYQQKPGKSPKLLIYGASRLQDGVPSRFSGSGSGTDYTLTISSLQPEDFATYYCQQGFKYPLTFGGGTKVEIK
notes: Human IgG1 backbone

Jagged1 IC50 [1]: 1.8 nM | binding result (huNotch3): no binding | binding result (huNotch1): no binding | Kd (huNotch2-EGF6-10 [4]): 3.08 nM | koff (huNotch2-EGF6-10 [4]): 0.000817 s⁻¹ | kon (huNotch2-EGF6-10 [4]): 265000 M⁻¹ s⁻¹
B3: hu1B2.v103 (antibody, V domains shown)
VH: B2 VH with R104K
VL: B2 VL
notes: Human IgG1 backbone
